Test results published in patent US20190194356A1.

B1: monoclonal antibody 9M284 (antibody, human IgG2, lambda)
heavy: QVQLVQSGAEVKKPGSSVKVSCKASAFTFDSFGMHWVRQAPGQGLEWMGLLWSDGSGEYYADSAKGRFTISRDNSKNTLYLQMNSLRSDDTAVYYCARAMGAIYYYYAMDVWGQGTTVTVSSASTKGPSVFPLAPCSRSTSESTAALGCLVKDYFPEPVTVSWNSGALTSGVHTFPAVLQSSGLYSLSSVVTVPSSNFGTQTYTCNVDHKPSNTKVDKTVERKCCVECPPCPAPPVAGPSVFLFPPKPKDTLMISRTPEVTCVVVDVSHEDPEVQFNWYVDGVEVHNAKTKPREEQFNSTFRVVSVLTVVHQDWLNGKEYKCKVSNKGLPAPIEKTISKTKGQPREPQVYTLPPSREEMTKNQVSLTCLVKGFYPSDIAVEWESNGQPENNYKTTPPMLDSDGSFFLYSKLTVDKSRWQQGNVFSCSVMHEALHNHYTQKSLSLSPG
light: QSALTQPPSVSGSPGQSVTISCTGTSSNIGNQFVSWYQQLPGTAPKLMIYEYNKRPSGVPDRFSGSKSGNTASLTISGLQTGDEADYYCGSWDSSLSGYVFGTGTRVTVLGQPKAAPSVTLFPPSSEELQANKATLVCLISDFYPGAVTVAWKADSSPVKAGVETTTPSKQSNNKYAASSYLSLTPEQWKSHRSYSCQVTHEGSTVEKTVAPTECS
B2: monoclonal antibody 9M283 (antibody, human IgG2, lambda, V domains shown)
VH: QVQLVQSGAEVKKPGSSVKVSCKASAFTFDSFGMHWVRQAPGQGLEWMGLLWSDGSDEYYADSAKGRFTISRDNSKNTLYLQMNSLRSDDTAVYYCARALGAIYSYYAMDVWGQGTTVTVSS
VL: QSALTQPPSVSGSPGQSVTISCTGTSSNIGNQFVSWYQQLPGTAPKLMIYEYNKRPSGVPDRFSGSKSGNTASLTISGLQTGDEADYYCGSWDSSLSGYVFGTGTRVTVLG

Target: cynomolgus PCSK9 antigen (NCBI NM_001112660.1) (cynomolgus)
Assay: BLI (Octet Red 96), antibody on anti-human IgG Fc (AHC) biosensor, PCSK9 in solution, 1:1 model

Row | Binder | Kd [nM] | koff [s⁻¹] | kon [M⁻¹ s⁻¹]
1 | B1 | < 0.001 | < 1e-07 | 298000
2 | B2 | 0.08 | 2.46e-05 | 308000
